Test results published in patent publication US9835633.

Tested on: human apolipoprotein E4
Sequence (chain, as listed by the source): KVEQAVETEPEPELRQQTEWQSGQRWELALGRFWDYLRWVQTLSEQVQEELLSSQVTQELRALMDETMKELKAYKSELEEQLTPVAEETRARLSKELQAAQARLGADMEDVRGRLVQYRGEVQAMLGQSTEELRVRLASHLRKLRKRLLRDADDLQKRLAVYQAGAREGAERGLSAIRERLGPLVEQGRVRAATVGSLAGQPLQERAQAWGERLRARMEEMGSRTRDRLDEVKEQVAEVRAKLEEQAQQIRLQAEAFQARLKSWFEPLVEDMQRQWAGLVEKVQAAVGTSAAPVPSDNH

Substance	apoE fragmentation in NSE-apoE4 primary neurons overexpressing the enzyme
PCSK1 (Protein Convertase, Subtilisin/Kexin-Type-1), overexpressed by transient transfection	A mild increase of apoE fragmentation was also detected in NSE-apoE4 primary neurons overexpressing PCSK1 or PCSK2
PCSK2 (Protein Convertase, Subtilisin/Kexin-Type-2), overexpressed by transient transfection	A mild increase of apoE fragmentation was also detected in NSE-apoE4 primary neurons overexpressing PCSK1 or PCSK2
